Measured values reported in US20020143164.

Tests used:
[1] = target: Endogenous Ras of HEK-293T cells

Sequence of GST-Ras [GST: P08515] (P08515 whole entry, looked up): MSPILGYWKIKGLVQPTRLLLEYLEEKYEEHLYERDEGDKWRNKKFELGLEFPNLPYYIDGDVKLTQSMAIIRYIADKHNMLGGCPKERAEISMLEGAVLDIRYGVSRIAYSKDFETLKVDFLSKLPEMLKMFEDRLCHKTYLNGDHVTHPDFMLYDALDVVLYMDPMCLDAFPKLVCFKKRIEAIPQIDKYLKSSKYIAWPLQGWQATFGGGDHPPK

B1: Flag-tagged full-length GRF4 (protein)
chain: MKPLAIPANHGVMGQQEKHSLPADFTKLHLTDSLHPQVTHVSSSHSGCSITSDSGSSSLSDIYQATESEAGDMDLSGLPETAVDSEDDDDEEDIERASDPLMSRDIVRDCLEKDPIDRTDDDIEQLLEFMHQLPAFANMTMSVRRELCAVMVFAVVERAGTIVLNDGEELDSWSVILNGSVEVTYPDGKAEILCMGNSFGVSPTMDKEYMKGVMRTKVDDCQFVCIAQQDYCRILNQVEKNMQKVEEEGEIVMVKEHRELDRTGTRKGHIVIKGTSERLTMHLVEEHSVVDPTFIEDFLLTYRTFLSSPMEVGKKLLEWFNDPSLRDKVTRVVLLWVNNHFNDFEGDPAMTRFLEEFENNLEREKMGGHLRLLNIACAAKAKRRLMTLTKPSREAPLPFILLGGSEKGFGIFVDSVDSGSKATEAGLKRGDQILEVNGQNFENIQLSKAMEILRNNTHLSITVKTNLFVFKELLTRLSEEKRNGAPHLPKIGDIKKASRYSIPDLAVDVEQVIGLEKVNKKSKANTVGGRNKLKKILDKTRISILPQKPYNDIGIGQSQDDSIVGLRQTKHIPTALPVSGTLSSSNPDLLQSHHRILDFSATPDLPDQVLRVFKADQQSRYIMISKDTTAKEVVIQAIREFAVTATPDQYSLCEVSVTPEGVIKQRRLPDQLSKLADRIQLSGRYYLKNNMETETLCSDEDAQELLRESQISLLQLSTVEVATQLSMRNFELFRNIEPTEYIDDLFKLRSKTSCANLKRFEEVINQETFWVASEILRETNQLKRMKIIKHFIKIALHCRECKNFNSMFAIISGLNLAPVARLRTTWEKLPNKYEKLFQDLQDLFDPSRNMAKYRNVLNSQNLQPPIIPLFPVIKKDLTFLHEGNDSKVDGLVNFEKLRMIAKEIRHVGRMASVNMDPALMFRTRKKKWRSLGSLSQGSTNATVLDVAQTGGHKKRVRRSSFLNAKKLYEDAQMARKVKQYLSNLELEMDEESLQTLSLQCEPATNTLPKNPGDKKPVKSETSPVAPRAGSQQKAQSLPQPQQQPPPAHKINQGLQVPAVSLYPSRKKVPVKDLPPFGINSPQALKKILSLSEEGSLERHKKQAEDTISNASSQLSSPPTSPQSSPRKGYTLAPSGTVDNFSDSGHSEISSRSSIVSNSSFDSVPVSLHDERRQRHSVSIVETNLGMGRMERRTMIEPDQYSLGSYAPMSEGRGLYATATVISSPSTEELSQDQGDRASLDAADSGRGSWTSCSSGSHDNIQTIQHQRSWETLPFGHTHFDYSGDPAGLWASSSHMDQIMFSDHSTKYNRQNQSRESLEQAQSRASWASSTGYWGEDSEGDTGTIKRRGGKDVSIEAESSSLTSVTTEETKPVPMPAHIAVASSTTKGLIARKEGRYREPPPTPPGYIGIPITDFPEGHSHPARKPPDYNVALQRSRMVARSSDTAGPSSVQQPHGHPTSSRPVNKPQWHKPNESDPRLAPYQSQGFSTEEDEDEQVSAV
- active Ras (Ras-GTP) precipitated with GST-Raf1-RBD from HEK-293T lysates [1]: heterologous expression of GRF4 in HEK-293T cells led to a weak activation of endogenous Ras, which was greatly enhanced following stimulation of cells with ... 8-Br-cAMP
- fold Ras activation in vitro (bound 32P-GTP, 30 min, against Ras without GRFs set to 1) (GST-Ras [GST: P08515]): ˜2.9 fold activation in 30 min.

B2: Isolated CDC25 domain of GRF4 (protein)
chain: SLLQLSTVEVATQLSMRNFELFRNIEPTEYIDDLFKLRSKTSCANLKRFEEVINQETFWVASEILRETNQLKRMKIIKHFIKIALHCRECKNFNSMFAIISGLNLAPVARLRTTWEKLPNKYEKLFQDLQDLFDPSRNMAKYRNVLNSQNLQPPIIPLFPVIKKDLTFLHEGNDSKVDGLVNFEKLRMIAKEIRHVGRMASVNMDPALMFRTRKKKWRSLGSLSQGSTNATVLDVAQTGGHKKRVRRSSFLNAKKLYEDAQMARKVKQYLSNLELEMDEESLQTLSLQCEPATNT
- Ras activation in vitro (GEF assay) (GST-Ras [GST: P08515]): we were unable to demonstrate significant activation of Ras by the isolated CDC25 domain of GRF4
